Measurements as given in US20230212319A1, “NOVEL ANTIGEN BINDING DOMAINS AND SYNTHETIC ANTIGEN RECEPTORS INCORPORATING THE SAME” (University of Southern California, priority 2020, published 2023).

B1: 22107 (protein)
chain: MALPVTALLLPLALLLHAARPDIQMTQSPSSLSASVGDRVTITCKASDHINNWLAWYQQKPGQAPKLLIYGATTLETGVPSRFSGSGSGTDYTLTISSLQPEDFATYYCQQSWNTPWTFGQGTKLEIKRLEIQNPDPAVYQLRDSKSSDKSVCLFTDFDSQTNVSQSKDSDVYITDKCVLDMRSMDFKSNSAVAWSNKSDFACANAFNNSIIPEDTFFPSSDVPCDVKLVEKSFETDTNLNFQNLSVIGFRILLLKVAGFNLLMTLRLWSSRAKRSGSGVKQTLNFDLLKLAGDVESNPGPTSATMDWIWRILFLVGAATGAHSGPQVQLQESGGGLAQAGGSLRLSCAASGRTFSMGWFRQAPGKEREFVAAITYSGGSPYYASSVRGRFTISRDNAKNTVYLQMNSLKPEDTAVYYCAANPTYGSDWNAENWGQGTQVTVSSGSGGGGSGGGGSGGGGSFEQVQLQQPGAELVKPGASVKMSCKASGYAFSSYWINWMKQKPGQGLEWIGQIYPGDGDTNYNGKFKGRATLTADTSSSTAYMQLSSLTSEDSAVYFCARSITTVVGCAMDYWGQGTSVTVSSTREDLKNVFPPEVAVFEPSKAEIAHTQKATLVCLATGFYPDHVELSWWVNGKEVHSGVCTDPQPLKEQPALNDSRYCLSSRLRVSATFWQNPRNHFRCQVQFYGLSENDEWTQDRAKPVTQIVSAEAWGRADCGITSASYHQGVLSATILYEILLGKATLYAVLVSALVLMAMVKRKDSRGRAKRSGSGATNFSLLKQAGDVEENPGPSRGHMTEYKPTVRLATRDDVPRAVRTLAAAFADYPATRHTVDPDRHIERVTELQELFLTRVGLDIGKVWVADDGAAVAVWTTPESVEAGAVFAEIGPRMAELSGSRLAAQQQMEGLLAPHRPKEPAWFLATVGVSPDHQGKGLGSAVVLPGVEAAERAGVPAFLETSAPRNLPFYERLGFTVTADVEVPEGPRTWCMTRKPGA
B2: 22108 (protein)
chain: MALPVTALLLPLALLLHAARPQVQLVESGGGLVQPGGSLRLSCAASGFTFTNHAMSWVRQAPGKGLELVSSISGNGRTTYYADSVKGRFTISRDISKNTLDLQMNSLRAEDTAVYYCAKDGGETLVDSRGQGTLVTVSSGTGGGGSGGGGSGGGGSEFDIQMTQSPSSLSASVGDRVTITCKASDHINNWLAWYQQKPGQAPKLLIYGATTLETGVPSRFSGSGSGTDYTLTISSLQPEDFATYYCQQSWNTPWTFGQGTKLEIKRLEDLKNVFPPEVAVFEPSEAEISHTQKATLVCLATGFYPDHVELSWWVNGKEVHSGVCTDPQPLKEQPALNDSRYCLSSRLRVSATFWQNPRNHFRCQVQFYGLSENDEWTQDRAKPVTQIVSAEAWGRADCGFTSESYQQGVLSATILYEILLGKATLYAVLVSALVLMAMVKRKDSRGRAKRSGSGATNFSLLKQAGDVEENPGPTSMDWIWRILFLVGAATGAHSFEQVQLQQPGAELVKPGASVKMSCKASGYAFSSYWINWMKQKPGQGLEWIGQIYPGDGDTNYNGKFKGRATLTADTSSSTAYMQLSSLTSEDSAVYFCARSITTVVGCAMDYWGQGTSVTVSSTRIQNPDPAVYQLRDSKSSDKSVCLFTDFDSQTNVSQSKDSDVYITDKCVLDMRSMDFKSNSAVAWSNKSDFACANAFNNSIIPEDTFFPSPESSCDVKLVEKSFETDTNLNFQNLSVIGFRILLLKVAGFNLLMTLRLWSSRAKRSGSGVKQTLNFDLLKLAGDVESNPGPSRGHMTEYKPTVRLATRDDVPRAVRTLAAAFADYPATRHTVDPDRHIERVTELQELFLTRVGLDIGKVWVADDGAAVAVWTTPESVEAGAVFAEIGPRMAELSGSRLAAQQQMEGLLAPHRPKEPAWFLATVGVSPDHQGKGLGSAVVLPGVEAAERAGVPAFLETSAPRNLPFYERLGFTVTADVEVPEGPRTWCMTRKPGA

What was measured:
Assay type in all cases: cell-based
RS;411 = assay: JNG assay, co-culture with RS;411 cells; settings: co-culture with RS411
In short: (§1)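 Read-out is NFAT-driven GFP measured by flow cytometry after ~4–18 h co-culture of SAR-expressing JNG cells with target cells (E:T about 1:2). SARs were introduced by lentiviral spinfection and selected with puromycin or blasticidin when possible; scores (+/- to 5+ ≈ 5–50% GFP+) are relative to parental JNG cells.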

RAJI cells = assay: JNG assay, co-culture with RAJI cells; settings: JNG cells expressing construct, co-culture with Raji
In short: as §1

RAJI-CD19-KO cells = assay: JNG assay, co-culture with RAJI-CD19-KO cells; settings: co-culture with Raji-CD19-KO
In short: as §1

| Molecule | NFAT-GFP ASSAY: RS411 (RS;411) | NFAT-GFP ASSAY: Raji (RAJI cells) | NFAT-GFP ASSAY: Raji-CD19-KO (RAJI-CD19-KO cells) |
| --- | --- | --- | --- |
| B1 | + (refer to approximately 5%, 10%, 20%, 30%, 40% and 50% GFP positive cells) | 4+ (refer to approximately 5%, 10%, 20%, 30%, 40% and 50% GFP positive cells) | 5+ (refer to approximately 5%, 10%, 20%, 30%, 40% and 50% GFP positive cells) |
| B2 | 5+ (refer to approximately 5%, 10%, 20%, 30%, 40% and 50% GFP positive cells) | 4+ (refer to approximately 5%, 10%, 20%, 30%, 40% and 50% GFP positive cells) | 3+ (refer to approximately 5%, 10%, 20%, 30%, 40% and 50% GFP positive cells) |
